Assay results as given in US20190153410A1 (NOVOZYMES A S, published 2019).

Key:
[1] = biological target: T1, Rhizomucor miehei lipase (RmL) mature protein (Rhizomucor miehei, UniProt P19515 95-363); assay: cell-based or functional assay
T1 sequence: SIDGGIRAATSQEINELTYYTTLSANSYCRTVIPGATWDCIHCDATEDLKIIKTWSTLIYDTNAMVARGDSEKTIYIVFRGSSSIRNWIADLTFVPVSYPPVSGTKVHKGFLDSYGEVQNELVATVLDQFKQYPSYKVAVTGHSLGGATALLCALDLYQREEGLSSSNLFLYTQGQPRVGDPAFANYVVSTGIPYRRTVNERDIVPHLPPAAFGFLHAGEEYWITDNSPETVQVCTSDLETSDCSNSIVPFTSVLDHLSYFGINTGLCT

RhimiLip1 (SEQ ID NO: 7) = biological target: T2, RhimiLip1 (SEQ ID NO: 7); assay: cell-based or functional assay
T2 chain: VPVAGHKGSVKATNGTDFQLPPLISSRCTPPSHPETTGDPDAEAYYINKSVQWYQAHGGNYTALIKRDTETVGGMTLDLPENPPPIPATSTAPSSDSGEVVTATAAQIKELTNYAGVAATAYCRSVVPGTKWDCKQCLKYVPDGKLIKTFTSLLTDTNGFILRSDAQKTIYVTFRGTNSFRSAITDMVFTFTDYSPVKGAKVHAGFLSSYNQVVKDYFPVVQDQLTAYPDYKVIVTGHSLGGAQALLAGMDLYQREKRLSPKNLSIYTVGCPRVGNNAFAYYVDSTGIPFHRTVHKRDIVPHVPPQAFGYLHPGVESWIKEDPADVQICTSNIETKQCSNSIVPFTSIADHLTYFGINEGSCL

[2] = biological target: T3, MuciLip2CN (SEQ ID NO: 6); assay: cell-based or functional assay
T3 chain: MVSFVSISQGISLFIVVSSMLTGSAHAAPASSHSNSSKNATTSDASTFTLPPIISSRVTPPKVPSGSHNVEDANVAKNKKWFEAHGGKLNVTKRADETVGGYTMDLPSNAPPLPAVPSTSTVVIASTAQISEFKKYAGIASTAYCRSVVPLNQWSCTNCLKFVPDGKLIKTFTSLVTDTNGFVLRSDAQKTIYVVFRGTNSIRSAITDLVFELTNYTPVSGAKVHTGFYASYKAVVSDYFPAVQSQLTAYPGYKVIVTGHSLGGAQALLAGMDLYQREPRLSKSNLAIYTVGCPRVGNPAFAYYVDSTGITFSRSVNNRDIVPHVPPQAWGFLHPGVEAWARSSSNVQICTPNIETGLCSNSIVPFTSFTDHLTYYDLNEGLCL

Lipex (SEQ ID NO: 5) = biological target: T4, Lipex (SEQ ID NO: 5) (Thermomyces lanuginosus (Thermophilic …, UniProt O59952 23-291)); assay: cell-based or functional assay
T4 chain: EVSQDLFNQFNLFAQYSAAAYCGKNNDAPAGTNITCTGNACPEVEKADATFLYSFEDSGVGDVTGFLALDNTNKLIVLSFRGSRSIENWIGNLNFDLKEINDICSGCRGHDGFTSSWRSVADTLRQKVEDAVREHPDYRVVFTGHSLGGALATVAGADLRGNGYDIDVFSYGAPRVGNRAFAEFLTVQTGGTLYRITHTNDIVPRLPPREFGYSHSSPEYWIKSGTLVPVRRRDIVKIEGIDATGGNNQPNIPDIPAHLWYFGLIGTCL

[3] = biological target: T5, propeptide of Rhizomucor miehei lipase (RmL propeptide)
T5 chain: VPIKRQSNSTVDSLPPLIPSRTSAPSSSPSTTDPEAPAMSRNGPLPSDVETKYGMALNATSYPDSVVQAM

| Binder | RP(wash) with inhibitor, AMSA, propeptide:lipase 320:1 (normalized to no inhibitor = 1.00) [1] | RP(wash) with inhibitor, AMSA, propeptide:lipase 320:1 (normalized to no inhibitor = 1.00) (RhimiLip1 (SEQ ID NO: 7)) | RP(wash) with inhibitor, AMSA, propeptide:lipase 320:1 (normalized to no inhibitor = 1.00) [2] | RP(wash) with inhibitor, AMSA, propeptide:lipase 320:1 (normalized to no inhibitor = 1.00) (Lipex (SEQ ID NO: 5)) | hydrolytic activity on p-nitrophenyl acyl esters (C3, C6, C10, C12, C16), release of p-nitrophenol at 405 nm [3] |
| --- | --- | --- | --- | --- | --- |
| propeptide of Rhizomucor miehei lipase (RmL propeptide) (peptide) peptide: VPIKRQSNSTVDSLPPLIPSRTSAPSSSPSTTDPEAPAMSRNGPLPSDVETKYGMALNATSYPDSVVQAM | 0.02 | 0.92 | 1.1 | 0.89 |  |
| Rhizomucor miehei lipase (RmL) mature protein (protein) SIDGGIRAATSQEINELTYYTTLSANSYCRTVIPGATWDCIHCDATEDLKIIKTWSTLIYDTNAMVARGDSEKTIYIVFRGSSSIRNWIADLTFVPVSYPPVSGTKVHKGFLDSYGEVQNELVATVLDQFKQYPSYKVAVTGHSLGGATALLCALDLYQREEGLSSSNLFLYTQGQPRVGDPAFANYVVSTGIPYRRTVNERDIVPHLPPAAFGFLHAGEEYWITDNSPETVQVCTSDLETSDCSNSIVPFTSVLDHLSYFGINTGLCT |  |  |  |  | RmL with the propeptide bound showed no activity at any of the conditions tested |
